From patent US20100239587A1 (published 2010) come the findings set out here.

Bridge positions count the residues as written; N and C are the ends. Ends that are not written are not given here. Where only a bound is given, the exact number is not on record here.

The target in experiment [1] is TNF receptor (immobilized control). Description: SPR, receptor immobilized, peptide injected. Background: In SPR one partner is held on a chip, and binding of the other changes the refractive index at the surface.
For experiment [2], the target named is T1, ErbB1 extracellular domain (recombinant, soluble) (UniProt P00533 25-645, limits assumed).
T1 construct: extracellular domain; also called erbB1 ectodomain; EGFr
Description: SPR; 10 µM peptide pre-injected over immobilized ErbB1; competitor: ErbB3 ectodomain (300 nM) with HRGβ1 (5 µM).

The target of experiment [3] is T2, ErbB2 extracellular domain (recombinant) (UniProt P04626 23-652, limits assumed).
T2 construct: extracellular domain; also called erbB2 ectodomain; full-size erbB2 ectodomain
Description: SPR; 10 µM peptide pre-injected over immobilized ErbB2; competitor: ErbB3 ectodomain (300 nM) with HRGβ1 (5 µM).

The target in experiment [4] is T3, ErbB3 extracellular domain (recombinant, soluble) (UniProt P21860 20-643, limits assumed).
T3 construct: extracellular domain; Used both immobilized and as the injected analyte (300 nM, alone or with 5 µM HRGβ1); also called erbB3 ectodomain
T3 sequence (P21860 20-643 limits assumed): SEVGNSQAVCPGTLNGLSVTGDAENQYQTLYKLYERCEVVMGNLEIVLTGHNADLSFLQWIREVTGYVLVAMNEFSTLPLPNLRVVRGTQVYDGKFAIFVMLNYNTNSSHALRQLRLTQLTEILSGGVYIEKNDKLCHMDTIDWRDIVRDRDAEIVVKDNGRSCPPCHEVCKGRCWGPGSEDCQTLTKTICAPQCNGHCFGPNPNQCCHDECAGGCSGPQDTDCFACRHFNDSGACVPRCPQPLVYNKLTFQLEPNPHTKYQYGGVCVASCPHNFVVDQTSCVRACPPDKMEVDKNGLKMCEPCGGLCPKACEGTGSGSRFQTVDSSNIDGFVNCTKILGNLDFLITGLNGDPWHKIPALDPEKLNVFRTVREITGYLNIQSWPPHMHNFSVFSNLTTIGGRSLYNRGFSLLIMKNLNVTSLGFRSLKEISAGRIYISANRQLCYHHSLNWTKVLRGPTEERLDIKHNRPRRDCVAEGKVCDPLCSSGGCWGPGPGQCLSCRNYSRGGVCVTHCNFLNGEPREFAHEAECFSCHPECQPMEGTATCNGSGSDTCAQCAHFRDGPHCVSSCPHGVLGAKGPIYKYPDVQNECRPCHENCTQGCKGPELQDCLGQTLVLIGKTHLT
Nature of the experiment: SPR; 10 µM peptide pre-injected over immobilized ErbB3; competitor: ErbB3 ectodomain (300 nM) with HRGβ1 (5 µM).

B1: B2-S22-AFA (peptide)
peptide: YCFPDEEGACY
modifications: disulfide 2-10 (inferred)
notes: Cyclic peptide that mimics part of the S22 loop of erbB2
In general, Kd refers to the equilibrium constant for the complex coming apart. Higher therefore signals lower affinity. On to B1, for which, in experiment [1], the Kd is above 1000 µM.
Same read-out and setting: the value for YCLVWKYADAGCY (disulfide 2-12 (inferred), Derived from the S22 repeat of erbB1) [B1-S22-ALG] was above 1000 µM; that for YCPIWKFPDEECY (disulfide 2-12 (inferred), Derived from the S22 repeat of erbB2) [B2-S22-APE] was above 1000 µM.
As for YCFIFKYADPDCY (disulfide 2-12 (inferred), Derived from the S22 repeat of erbB4) [B4-S22-AFD], the Kd in experiment [1] is above 1000 µM.
With YCPIYKYPDVQCY (disulfide 2-12 (inferred), Derived from the S22 repeat of erbB3) [B3-S22-APQ], in experiment [1], the Kd is above 1000 µM.

B2: CD4-G (peptide)
peptide: FCYIGEVEDQCY
modifications: disulfide 2-11 (inferred)
notes: Negative control peptide; also called CD4 receptor-derived cyclic peptide; control peptide
In turn, B2 showed a Kd in experiment [1] above 1000 µM. Also, the “Percent Inhibition” value in experiment [2] was 2.4%; in experiment [3], -1.2%; in experiment [4] it was 3.1%.
